Earlier results in patent US5925739A, “Pharmaceutical formulation for subcutaneous intramuscular or intradermal administration of factor VIII” (Pharmacia & Upjohn AB, priority 1994, dated 1999).

Settings: hemophilia B patients, injected into subcutaneous tissue

In the case of “human factor IX: coagulation factor IX, molecular mass of about 56 kDa”, the “transport into the circulation” value is given as “poorly and very slowly transported into the circulation”.
